In patent US11419948B2, “Functionalized microgels with fibrin binding elements” (Georgia Tech Research Corporation, priority 2013, dated 2022):

Target: T1, fibrin clot polymerization (Homo sapiens, UniProt P02671+P02675+P02679)
T1 sequence (P02671 36-866 limits assumed): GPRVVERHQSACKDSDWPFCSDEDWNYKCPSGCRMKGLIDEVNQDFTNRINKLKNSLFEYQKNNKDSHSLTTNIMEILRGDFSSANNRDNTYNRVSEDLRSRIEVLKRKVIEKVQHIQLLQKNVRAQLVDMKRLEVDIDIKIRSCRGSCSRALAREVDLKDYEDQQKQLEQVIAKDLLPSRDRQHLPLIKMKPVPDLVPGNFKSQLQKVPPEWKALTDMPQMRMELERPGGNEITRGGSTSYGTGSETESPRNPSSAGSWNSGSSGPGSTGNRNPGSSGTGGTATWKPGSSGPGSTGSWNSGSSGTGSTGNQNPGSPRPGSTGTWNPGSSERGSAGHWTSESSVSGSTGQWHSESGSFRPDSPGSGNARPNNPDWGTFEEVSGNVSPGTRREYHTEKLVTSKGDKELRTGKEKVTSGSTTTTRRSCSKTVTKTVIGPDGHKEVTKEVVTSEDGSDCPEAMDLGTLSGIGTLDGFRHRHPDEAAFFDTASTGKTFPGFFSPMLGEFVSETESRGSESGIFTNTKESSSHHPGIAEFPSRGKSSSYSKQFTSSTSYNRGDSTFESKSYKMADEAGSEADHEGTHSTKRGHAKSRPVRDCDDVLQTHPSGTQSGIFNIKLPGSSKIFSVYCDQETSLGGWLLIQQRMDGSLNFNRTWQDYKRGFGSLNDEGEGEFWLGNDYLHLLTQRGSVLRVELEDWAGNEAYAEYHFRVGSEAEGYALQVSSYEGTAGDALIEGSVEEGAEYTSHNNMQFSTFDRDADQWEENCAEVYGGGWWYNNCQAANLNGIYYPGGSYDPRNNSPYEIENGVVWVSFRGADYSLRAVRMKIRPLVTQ
T1 sequence (P02675 45-491 limits assumed): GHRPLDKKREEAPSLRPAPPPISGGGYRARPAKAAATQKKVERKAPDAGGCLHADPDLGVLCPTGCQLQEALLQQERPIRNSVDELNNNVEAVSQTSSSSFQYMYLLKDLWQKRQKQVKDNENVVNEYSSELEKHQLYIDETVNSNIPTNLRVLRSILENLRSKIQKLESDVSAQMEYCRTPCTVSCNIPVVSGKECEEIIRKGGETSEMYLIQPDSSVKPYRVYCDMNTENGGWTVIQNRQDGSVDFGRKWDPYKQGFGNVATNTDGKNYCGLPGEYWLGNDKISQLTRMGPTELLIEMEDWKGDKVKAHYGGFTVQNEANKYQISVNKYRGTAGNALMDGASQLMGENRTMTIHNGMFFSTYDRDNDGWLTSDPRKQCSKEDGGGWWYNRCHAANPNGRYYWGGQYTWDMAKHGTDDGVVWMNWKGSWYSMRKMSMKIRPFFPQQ
T1 sequence (P02679 27-453): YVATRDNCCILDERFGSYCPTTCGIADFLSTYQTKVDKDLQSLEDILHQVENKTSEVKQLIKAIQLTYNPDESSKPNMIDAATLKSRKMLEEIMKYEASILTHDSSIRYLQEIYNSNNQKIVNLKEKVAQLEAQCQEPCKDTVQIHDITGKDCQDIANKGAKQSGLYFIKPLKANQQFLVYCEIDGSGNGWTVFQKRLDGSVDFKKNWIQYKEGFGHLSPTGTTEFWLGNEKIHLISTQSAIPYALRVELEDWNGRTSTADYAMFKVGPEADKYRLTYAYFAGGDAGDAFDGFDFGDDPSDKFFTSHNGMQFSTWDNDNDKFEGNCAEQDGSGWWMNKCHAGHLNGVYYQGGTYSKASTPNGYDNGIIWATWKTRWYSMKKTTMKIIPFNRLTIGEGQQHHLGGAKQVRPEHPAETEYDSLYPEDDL
Test: Turbidity assay of fibrin clot polymerization
Format: biochemical
Protocol: H6 interference with fibrin clot polymerization was determined through turbidity and clottability assays. The turbidity assay involved polymerizing physiological fibrin clots (2 mg/mL) in wells of a 96-well plate while taking absorbance measurements at 350 nm every 30 seconds. An increase in absorbance correlates to an increase in clot “cloudiness” which, in turn, indicates gelation. Turbidity of standard fibrin clots was compared to that of clots exposed to varying molar concentrations ranging from 1:1 to 1:1000 molar ratios of nanobody to fibrinogen.

B1: H6: fibrin-specific human sdFv clone from phage biopanning, SEQ ID NO: 1 (protein)
VHH: QVQLLESGGGLVQPGGSLRLSCAASGDRFTHNDMGWVRQAPGKGLEWVSTIPTTDGSTYYADSVKGRFTISRDNSKSTLYLQMNSLRAEDTAVYYCATGYMWKAPAYVKYWGQGTLVTVSSAAAEQKLISEEDLNSAAHYTDIG
turbidity versus fibrin controls (all other molar ratios): indistinguishable from physiological fibrin controls | turbidity versus fibrin controls (molar ratio to fibrinogen 1:1, differences not significant): notable difference in turbidity readings
